Source: patent US20260167699A1 (Chugai, published 2026)

T1: FcγRIIa(R) (human, UniProt P12318 34-217)
T1 construct: extracellular domain; also called 2aR
T1 sequence: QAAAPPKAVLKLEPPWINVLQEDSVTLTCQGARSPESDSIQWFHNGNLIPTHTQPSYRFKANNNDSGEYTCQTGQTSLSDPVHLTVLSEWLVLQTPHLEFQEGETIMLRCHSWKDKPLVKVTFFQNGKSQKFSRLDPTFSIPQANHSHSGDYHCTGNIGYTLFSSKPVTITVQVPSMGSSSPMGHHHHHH

T2: FcγRIIa(H) (human, UniProt P12318 34-217)
T2 construct: extracellular domain; also called 2aH
T2 sequence: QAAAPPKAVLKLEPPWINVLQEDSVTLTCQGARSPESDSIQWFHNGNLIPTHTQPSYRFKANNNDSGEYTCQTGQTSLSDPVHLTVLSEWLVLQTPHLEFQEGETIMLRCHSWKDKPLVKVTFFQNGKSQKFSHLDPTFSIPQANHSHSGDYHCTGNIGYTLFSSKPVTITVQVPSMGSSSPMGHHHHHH

T3: FcγRIIb (human, UniProt P31994 43-217)
T3 construct: extracellular domain; also called 2b
T3 sequence: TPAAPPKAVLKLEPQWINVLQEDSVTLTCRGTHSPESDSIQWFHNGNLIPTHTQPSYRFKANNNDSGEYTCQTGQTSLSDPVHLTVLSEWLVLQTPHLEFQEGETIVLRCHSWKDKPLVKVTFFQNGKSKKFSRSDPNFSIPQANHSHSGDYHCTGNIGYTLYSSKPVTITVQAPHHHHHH

T4: FcγRIIa(R) extracellular domain with C-terminal His tag (human, UniProt P12318 34-217)
T4 construct: extracellular domain; R131 allotype; also called 2aR; CD32
T4 sequence: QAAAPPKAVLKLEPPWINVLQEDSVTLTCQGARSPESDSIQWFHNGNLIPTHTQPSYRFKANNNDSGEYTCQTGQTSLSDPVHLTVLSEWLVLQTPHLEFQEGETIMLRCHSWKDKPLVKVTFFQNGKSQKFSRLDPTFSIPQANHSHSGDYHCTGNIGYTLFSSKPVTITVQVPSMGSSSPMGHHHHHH

T5: FcγRIIa(H) extracellular domain with C-terminal His tag (human, UniProt P12318 34-217)
T5 construct: extracellular domain; H131 allotype; also called 2aH; CD32
T5 sequence: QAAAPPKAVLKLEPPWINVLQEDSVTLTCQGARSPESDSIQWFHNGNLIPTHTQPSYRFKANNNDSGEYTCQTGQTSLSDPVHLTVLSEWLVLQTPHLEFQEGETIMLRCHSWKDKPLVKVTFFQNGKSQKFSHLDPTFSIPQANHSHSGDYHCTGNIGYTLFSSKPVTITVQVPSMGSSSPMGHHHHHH

T6: FcγRIIb extracellular domain with C-terminal His tag (human, UniProt P31994 43-217)
T6 construct: extracellular domain; also called 2b; CD32
T6 sequence: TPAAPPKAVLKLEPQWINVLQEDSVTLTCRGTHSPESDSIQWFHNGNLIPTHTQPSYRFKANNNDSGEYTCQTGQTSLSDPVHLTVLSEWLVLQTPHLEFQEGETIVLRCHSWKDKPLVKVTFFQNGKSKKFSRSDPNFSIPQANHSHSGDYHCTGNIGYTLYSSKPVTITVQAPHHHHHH


How the values were obtained:
FcγRIa = target: T7, FcγRIa (human, UniProt P12314 16-292); test: SPR, relative to GpH7-A5/GpH7-B3/GpL16-k0 =100
T7 construct: extracellular domain; also called 1a
T7 sequence (P12314 other isoform, or with tags, fused parts or gaps): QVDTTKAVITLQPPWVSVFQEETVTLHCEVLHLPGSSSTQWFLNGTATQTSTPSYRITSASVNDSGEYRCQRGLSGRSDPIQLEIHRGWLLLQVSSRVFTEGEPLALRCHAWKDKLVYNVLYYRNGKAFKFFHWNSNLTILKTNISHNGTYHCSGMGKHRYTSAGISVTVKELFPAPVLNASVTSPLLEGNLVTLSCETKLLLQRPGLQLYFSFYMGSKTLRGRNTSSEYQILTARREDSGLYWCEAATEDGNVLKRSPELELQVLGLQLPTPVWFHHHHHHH

FcγRIIa(R) = target: T1, FcγRIIa(R); test: SPR, relative to GpH7-A5/GpH7-B3/GpL16-k0 =100
FcγRIIa(H) = target: T2, FcγRIIa(H); test: SPR, relative to GpH7-A5/GpH7-B3/GpL16-k0 =100
FcγRIIb = target: T3, FcγRIIb; test: SPR, relative to GpH7-A5/GpH7-B3/GpL16-k0 =100
[1] = target: T8, FcγRIa extracellular domain with C-terminal His tag (human, UniProt P12314 16-292); test: SPR; % of GpH7-A5/GpH7-B3/GpL16-k0
T8 construct: extracellular domain; also called 1a; CD64
T8 sequence (P12314 other isoform, or with tags, fused parts or gaps): as above

[2] = target: T4, FcγRIIa(R) extracellular domain with …; test: SPR; % of GpH7-A5/GpH7-B3/GpL16-k0
[3] = target: T5, FcγRIIa(H) extracellular domain with …; test: SPR; % of GpH7-A5/GpH7-B3/GpL16-k0
[4] = target: T6, FcγRIIb extracellular domain with …; test: SPR; % of GpH7-A5/GpH7-B3/GpL16-k0
[5] = target: T9, FcγRIIIa extracellular domain with C-terminal His tag (human, UniProt P08637 17-208); test: SPR; % of GpH7-A5/GpH7-B3/GpL16-k0
T9 construct: extracellular domain; also called 3a; CD16
T9 sequence (P08637 other isoform, or with tags, fused parts or gaps): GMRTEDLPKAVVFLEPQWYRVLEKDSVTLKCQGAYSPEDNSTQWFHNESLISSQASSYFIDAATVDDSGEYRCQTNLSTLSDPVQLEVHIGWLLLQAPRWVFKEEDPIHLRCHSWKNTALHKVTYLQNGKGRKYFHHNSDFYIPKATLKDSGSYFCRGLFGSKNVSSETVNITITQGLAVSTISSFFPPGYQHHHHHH

Binder	He/Con 1a (FcγRIa) [%]	He/Con 2aR (FcγRIIa(R)) [%]	He/Con 2aH (FcγRIIa(H)) [%]	He/Con 2b (FcγRIIb) [%]	He/Con 1a [1] [%]	He/Con 2aR [2] [%]	He/Con 2aH [3] [%]	He/Con 2b [4] [%]	He/Con 3a [5] [%]
GpH7-A5/GpH7-B3 variant Y300_13S/GpL16-k0 (antibody, human IgG1, kappa, He Ab: heterodimerized IgG1, one H chain mutated) heavy 1: not shown heavy 2: not shown light: DIVMTQSPLSLPVTPGEPASISCQASESLVHSNRNTYLHWYLQKPGQSPQLLIYKVSNRFSGVPDRFSGSGSGTDFTLKISRVEAEDVGVYYCSQNTHVPPTFGQGTKVEIERTVAAPSVFIFPPSDEQLKSGTASVVCLLNNFYPREAKVQWKVDNALQSGNSQESVTEQDSKDSTYSLSSTLTLSKADYEKHKVYACEVTHQGLSSPVTKSFNRGEC	105	72.4	97.8	70.4					
GpH7-A5/GpH7-B3 variant T335_14T/GpL16-k0 (antibody, human IgG1, kappa, also called He Ab) heavy 1: not shown heavy 2: not shown light: DIVMTQSPLSLPVTPGEPASISCQASESLVHSNRNTYLHWYLQKPGQSPQLLIYKVSNRFSGVPDRFSGSGSGTDFTLKISRVEAEDVGVYYCSQNTHVPPTFGQGTKVEIERTVAAPSVFIFPPSDEQLKSGTASVVCLLNNFYPREAKVQWKVDNALQSGNSQESVTEQDSKDSTYSLSSTLTLSKADYEKHKVYACEVTHQGLSSPVTKSFNRGEC					110	116	112	116	104
GpH7-A5/GpH7-B3 variant A330_11K/GpL16-k0 (antibody, human IgG1, kappa, heterodimerized IgG1 (He Ab), mutation in one H chain only; also called He Ab) heavy 1: not shown heavy 2: not shown light: DIVMTQSPLSLPVTPGEPASISCQASESLVHSNRNTYLHWYLQKPGQSPQLLIYKVSNRFSGVPDRFSGSGSGTDFTLKISRVEAEDVGVYYCSQNTHVPPTFGQGTKVEIERTVAAPSVFIFPPSDEQLKSGTASVVCLLNNFYPREAKVQWKVDNALQSGNSQESVTEQDSKDSTYSLSSTLTLSKADYEKHKVYACEVTHQGLSSPVTKSFNRGEC					107	124	118	107	91.8
GpH7-A5/GpH7-B3 variant Y300_18N/GpL16-k0 (antibody, human IgG1, kappa, He Ab: heterodimerized IgG1, one H chain mutated) heavy 1: not shown heavy 2: not shown light: DIVMTQSPLSLPVTPGEPASISCQASESLVHSNRNTYLHWYLQKPGQSPQLLIYKVSNRFSGVPDRFSGSGSGTDFTLKISRVEAEDVGVYYCSQNTHVPPTFGQGTKVEIERTVAAPSVFIFPPSDEQLKSGTASVVCLLNNFYPREAKVQWKVDNALQSGNSQESVTEQDSKDSTYSLSSTLTLSKADYEKHKVYACEVTHQGLSSPVTKSFNRGEC	101	96.2	101	92.7					
GpH7-A5/GpH7-B3 variant Y300_14T/GpL16-k0 (antibody, human IgG1, kappa, He Ab: heterodimerized IgG1, one H chain mutated) heavy 1: not shown heavy 2: not shown light: DIVMTQSPLSLPVTPGEPASISCQASESLVHSNRNTYLHWYLQKPGQSPQLLIYKVSNRFSGVPDRFSGSGSGTDFTLKISRVEAEDVGVYYCSQNTHVPPTFGQGTKVEIERTVAAPSVFIFPPSDEQLKSGTASVVCLLNNFYPREAKVQWKVDNALQSGNSQESVTEQDSKDSTYSLSSTLTLSKADYEKHKVYACEVTHQGLSSPVTKSFNRGEC	105	78.6	104	72.7					
GpH7-A5/GpH7-B3 variant Y300_19Q/GpL16-k0 (antibody, human IgG1, kappa, He Ab: heterodimerized IgG1, one H chain mutated) heavy 1: not shown heavy 2: not shown light: DIVMTQSPLSLPVTPGEPASISCQASESLVHSNRNTYLHWYLQKPGQSPQLLIYKVSNRFSGVPDRFSGSGSGTDFTLKISRVEAEDVGVYYCSQNTHVPPTFGQGTKVEIERTVAAPSVFIFPPSDEQLKSGTASVVCLLNNFYPREAKVQWKVDNALQSGNSQESVTEQDSKDSTYSLSSTLTLSKADYEKHKVYACEVTHQGLSSPVTKSFNRGEC	106	119	107	142					
GpH7-A5/GpH7-B3 variant A330_12R/GpL16-k0 (antibody, human IgG1, kappa, heterodimerized IgG1 (He Ab), mutation in one H chain only; also called He Ab) heavy 1: not shown heavy 2: not shown light: DIVMTQSPLSLPVTPGEPASISCQASESLVHSNRNTYLHWYLQKPGQSPQLLIYKVSNRFSGVPDRFSGSGSGTDFTLKISRVEAEDVGVYYCSQNTHVPPTFGQGTKVEIERTVAAPSVFIFPPSDEQLKSGTASVVCLLNNFYPREAKVQWKVDNALQSGNSQESVTEQDSKDSTYSLSSTLTLSKADYEKHKVYACEVTHQGLSSPVTKSFNRGEC					103	116	116	95.8	77.3
GpH7-A5/GpH7-B3 variant A330_15Y/GpL16-k0 (antibody, human IgG1, kappa, heterodimerized IgG1 (He Ab), mutation in one H chain only; also called He Ab) heavy 1: not shown heavy 2: not shown light: DIVMTQSPLSLPVTPGEPASISCQASESLVHSNRNTYLHWYLQKPGQSPQLLIYKVSNRFSGVPDRFSGSGSGTDFTLKISRVEAEDVGVYYCSQNTHVPPTFGQGTKVEIERTVAAPSVFIFPPSDEQLKSGTASVVCLLNNFYPREAKVQWKVDNALQSGNSQESVTEQDSKDSTYSLSSTLTLSKADYEKHKVYACEVTHQGLSSPVTKSFNRGEC					108	114	106	107	122
GpH7-A5/GpH7-B3 variant A330_06M/GpL16-k0 (antibody, human IgG1, kappa, heterodimerized IgG1 (He Ab), mutation in one H chain only; also called He Ab) heavy 1: not shown heavy 2: not shown light: DIVMTQSPLSLPVTPGEPASISCQASESLVHSNRNTYLHWYLQKPGQSPQLLIYKVSNRFSGVPDRFSGSGSGTDFTLKISRVEAEDVGVYYCSQNTHVPPTFGQGTKVEIERTVAAPSVFIFPPSDEQLKSGTASVVCLLNNFYPREAKVQWKVDNALQSGNSQESVTEQDSKDSTYSLSSTLTLSKADYEKHKVYACEVTHQGLSSPVTKSFNRGEC					108	107	101	90.9	139
GpH7-A5/GpH7-B3 variant Y300_20W/GpL16-k0 (antibody, human IgG1, kappa, He Ab: heterodimerized IgG1, one H chain mutated) heavy 1: not shown heavy 2: not shown light: DIVMTQSPLSLPVTPGEPASISCQASESLVHSNRNTYLHWYLQKPGQSPQLLIYKVSNRFSGVPDRFSGSGSGTDFTLKISRVEAEDVGVYYCSQNTHVPPTFGQGTKVEIERTVAAPSVFIFPPSDEQLKSGTASVVCLLNNFYPREAKVQWKVDNALQSGNSQESVTEQDSKDSTYSLSSTLTLSKADYEKHKVYACEVTHQGLSSPVTKSFNRGEC	106	104	103	110					
GpH7-A5/GpH7-B3 variant A330_05P/GpL16-k0 (antibody, human IgG1, kappa, heterodimerized IgG1 (He Ab), mutation in one H chain only; also called He Ab) heavy 1: not shown heavy 2: not shown light: DIVMTQSPLSLPVTPGEPASISCQASESLVHSNRNTYLHWYLQKPGQSPQLLIYKVSNRFSGVPDRFSGSGSGTDFTLKISRVEAEDVGVYYCSQNTHVPPTFGQGTKVEIERTVAAPSVFIFPPSDEQLKSGTASVVCLLNNFYPREAKVQWKVDNALQSGNSQESVTEQDSKDSTYSLSSTLTLSKADYEKHKVYACEVTHQGLSSPVTKSFNRGEC					105	129	92.6	154	152
GpH7-A5/GpH7-B3 variant Y300_16H/GpL16-k0 (antibody, human IgG1, kappa, He Ab: heterodimerized IgG1, one H chain mutated) heavy 1: not shown heavy 2: not shown light: DIVMTQSPLSLPVTPGEPASISCQASESLVHSNRNTYLHWYLQKPGQSPQLLIYKVSNRFSGVPDRFSGSGSGTDFTLKISRVEAEDVGVYYCSQNTHVPPTFGQGTKVEIERTVAAPSVFIFPPSDEQLKSGTASVVCLLNNFYPREAKVQWKVDNALQSGNSQESVTEQDSKDSTYSLSSTLTLSKADYEKHKVYACEVTHQGLSSPVTKSFNRGEC	105	103	105	114					
GpH7-A5/GpH7-B3 variant E333_01G/GpL16-k0 (antibody, human IgG1, kappa, heterodimerized IgG1 (He Ab), mutation in one H chain only; also called He Ab) heavy 1: not shown heavy 2: not shown light: DIVMTQSPLSLPVTPGEPASISCQASESLVHSNRNTYLHWYLQKPGQSPQLLIYKVSNRFSGVPDRFSGSGSGTDFTLKISRVEAEDVGVYYCSQNTHVPPTFGQGTKVEIERTVAAPSVFIFPPSDEQLKSGTASVVCLLNNFYPREAKVQWKVDNALQSGNSQESVTEQDSKDSTYSLSSTLTLSKADYEKHKVYACEVTHQGLSSPVTKSFNRGEC					97.2	127	112	105	101
